Experimental data reported in US20140213513A1 (Sanofi, priority 2012, published 2014).
*1 amine or outer side, *2 acyl side, *3 side chain or, on linkers, in order; H or OH if unused. Where no end group is shown, it is not given here. Side-chain parts run from the residue outwards. [ ]: non-standard residue; d: D form. The star is where a group is joined. γGlu = O=C(O)[C@H](CCC(=O)[*:2])N[*:1]; Stearoyl = CCCCCCCCCCCCCCCCCC(=O)*; Palmitoyl = CCCCCCCCCCCCCCCC(=O)*; Aib = CC(C)(N)C(=O)O

T1: human GIP receptor (human, UniProt P48546 22-466)
T1 sequence (looked up): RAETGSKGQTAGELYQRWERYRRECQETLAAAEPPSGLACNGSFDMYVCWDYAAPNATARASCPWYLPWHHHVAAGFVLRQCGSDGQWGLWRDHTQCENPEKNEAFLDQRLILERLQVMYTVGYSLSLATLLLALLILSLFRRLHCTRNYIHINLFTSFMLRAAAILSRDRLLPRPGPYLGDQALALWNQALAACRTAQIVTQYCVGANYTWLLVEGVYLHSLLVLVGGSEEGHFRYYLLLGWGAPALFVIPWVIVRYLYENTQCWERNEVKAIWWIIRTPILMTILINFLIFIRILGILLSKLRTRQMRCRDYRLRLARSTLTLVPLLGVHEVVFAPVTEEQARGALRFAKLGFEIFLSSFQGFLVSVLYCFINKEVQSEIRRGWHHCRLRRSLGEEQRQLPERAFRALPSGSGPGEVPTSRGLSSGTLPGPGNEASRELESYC


Columns and labels:
Experiment in all cases: cell-based or functional assay
human glucagon receptor = human glucagon receptor (human, UniProt P47871 26-477)
human GLP-1 receptor = human GLP-1 receptor (human, UniProt P43220 24-463)
human GIP receptor = molecular target: T1, human GIP receptor

Chain of human glucagon receptor (P47871 26-477): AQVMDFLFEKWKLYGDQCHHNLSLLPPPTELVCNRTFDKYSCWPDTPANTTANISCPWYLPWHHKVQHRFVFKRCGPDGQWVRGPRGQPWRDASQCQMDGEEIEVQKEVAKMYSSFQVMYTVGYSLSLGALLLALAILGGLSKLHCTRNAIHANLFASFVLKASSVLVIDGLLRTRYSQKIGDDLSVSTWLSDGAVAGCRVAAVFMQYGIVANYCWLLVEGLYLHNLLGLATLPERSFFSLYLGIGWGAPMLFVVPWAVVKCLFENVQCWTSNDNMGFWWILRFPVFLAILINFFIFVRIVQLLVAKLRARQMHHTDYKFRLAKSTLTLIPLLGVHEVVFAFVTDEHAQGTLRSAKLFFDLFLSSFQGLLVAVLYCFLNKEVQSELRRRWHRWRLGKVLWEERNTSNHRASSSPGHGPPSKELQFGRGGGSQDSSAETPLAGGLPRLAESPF

Row | Binder | EC50 hGLUC R (human glucagon receptor) [nM] | EC50 hGLP-1 R (human GLP-1 receptor) [nM] | EC50 hGIP R (human GIP receptor) [nM]
1 | Y[Aib]QGTFTSDLSIQK([γGlu-Palmitoyl])EKRAVQLFIEWLKNGGPSSGAPPPS-NH2 (N-terminus assumed; SMILES CCCCCCCCCCCCCCCC(=O)N[C@@H](CCC(=O)NCCCC[C@H](NC(=O)[C@H](CCC(N)=O)NC(=O)[C@@H](NC(=O)[C@H](CO)NC(=O)[C@H](CC(C)C)NC(=O)[C@H](CC(=O)O)NC(=O)[C@H](CO)NC(=O)[C@@H](NC(=O)[C@H](Cc1ccccc1)NC(=O)[C@@H](NC(=O)CNC(=O)[C@H](CCC(N)=O)NC(=O)C(C)(C)NC(=O)[C@@H](N)Cc1ccc(O)cc1)[C@@H](C)O)[C@@H](C)O)[C@@H](C)CC)C(=O)N[C@@H](CCC(=O)O)C(=O)N[C@@H](CCCCN)C(=O)N[C@@H](CCCNC(=N)N)C(=O)N[C@@H](C)C(=O)N[C@H](C(=O)N[C@@H](CCC(N)=O)C(=O)N[C@@H](CC(C)C)C(=O)N[C@@H](Cc1ccccc1)C(=O)N[C@H](C(=O)N[C@@H](CCC(=O)O)C(=O)N[C@@H](Cc1c[nH]c2ccccc12)C(=O)N[C@@H](CC(C)C)C(=O)N[C@@H](CCCCN)C(=O)N[C@@H](CC(N)=O)C(=O)NCC(=O)NCC(=O)N1CCC[C@H]1C(=O)N[C@@H](CO)C(=O)N[C@@H](CO)C(=O)NCC(=O)N[C@@H](C)C(=O)N1CCC[C@H]1C(=O)N1CCC[C@H]1C(=O)N1CCC[C@H]1C(=O)N[C@@H](CO)C(N)=O)[C@@H](C)CC)C(C)C)C(=O)O) [exendin-4 peptide analogue SEQ ID NO: 46] | 0.53 | 0.0235 | 0.0202
2 | Y[Aib]EGTFTSDLSIQK([γGlu-Stearoyl])ESKAAQEFIEWLKAGGPSSGAPPPS-NH2 (N-terminus assumed; SMILES CCCCCCCCCCCCCCCCCC(=O)N[C@@H](CCC(=O)NCCCC[C@H](NC(=O)[C@H](CCC(N)=O)NC(=O)[C@@H](NC(=O)[C@H](CO)NC(=O)[C@H](CC(C)C)NC(=O)[C@H](CC(=O)O)NC(=O)[C@H](CO)NC(=O)[C@@H](NC(=O)[C@H](Cc1ccccc1)NC(=O)[C@@H](NC(=O)CNC(=O)[C@H](CCC(=O)O)NC(=O)C(C)(C)NC(=O)[C@@H](N)Cc1ccc(O)cc1)[C@@H](C)O)[C@@H](C)O)[C@@H](C)CC)C(=O)N[C@@H](CCC(=O)O)C(=O)N[C@@H](CO)C(=O)N[C@@H](CCCCN)C(=O)N[C@@H](C)C(=O)N[C@@H](C)C(=O)N[C@@H](CCC(N)=O)C(=O)N[C@@H](CCC(=O)O)C(=O)N[C@@H](Cc1ccccc1)C(=O)N[C@H](C(=O)N[C@@H](CCC(=O)O)C(=O)N[C@@H](Cc1c[nH]c2ccccc12)C(=O)N[C@@H](CC(C)C)C(=O)N[C@@H](CCCCN)C(=O)N[C@@H](C)C(=O)NCC(=O)NCC(=O)N1CCC[C@H]1C(=O)N[C@@H](CO)C(=O)N[C@@H](CO)C(=O)NCC(=O)N[C@@H](C)C(=O)N1CCC[C@H]1C(=O)N1CCC[C@H]1C(=O)N1CCC[C@H]1C(=O)N[C@@H](CO)C(N)=O)[C@@H](C)CC)C(=O)O) [exendin-4 peptide analogue SEQ ID NO: 42] | 8.47 | 0.0062 | 0.0129
3 | Y[Aib]QGTFTSDLSIQK([γGlu-Palmitoyl])EK[Aib]AA[Aib]EFIEWLKNTGPSSGAPPPS-NH2 (N-terminus assumed; SMILES CCCCCCCCCCCCCCCC(=O)N[C@@H](CCC(=O)NCCCC[C@H](NC(=O)[C@H](CCC(N)=O)NC(=O)[C@@H](NC(=O)[C@H](CO)NC(=O)[C@H](CC(C)C)NC(=O)[C@H](CC(=O)O)NC(=O)[C@H](CO)NC(=O)[C@@H](NC(=O)[C@H](Cc1ccccc1)NC(=O)[C@@H](NC(=O)CNC(=O)[C@H](CCC(N)=O)NC(=O)C(C)(C)NC(=O)[C@@H](N)Cc1ccc(O)cc1)[C@@H](C)O)[C@@H](C)O)[C@@H](C)CC)C(=O)N[C@@H](CCC(=O)O)C(=O)N[C@@H](CCCCN)C(=O)NC(C)(C)C(=O)N[C@@H](C)C(=O)N[C@@H](C)C(=O)NC(C)(C)C(=O)N[C@@H](CCC(=O)O)C(=O)N[C@@H](Cc1ccccc1)C(=O)N[C@H](C(=O)N[C@@H](CCC(=O)O)C(=O)N[C@@H](Cc1c[nH]c2ccccc12)C(=O)N[C@@H](CC(C)C)C(=O)N[C@@H](CCCCN)C(=O)N[C@@H](CC(N)=O)C(=O)N[C@H](C(=O)NCC(=O)N1CCC[C@H]1C(=O)N[C@@H](CO)C(=O)N[C@@H](CO)C(=O)NCC(=O)N[C@@H](C)C(=O)N1CCC[C@H]1C(=O)N1CCC[C@H]1C(=O)N1CCC[C@H]1C(=O)N[C@@H](CO)C(N)=O)[C@@H](C)O)[C@@H](C)CC)C(=O)O) [exendin-4 peptide analogue SEQ ID NO: 9] | 0.445 | 0.0055 | 0.009
4 | Y[Aib]QGTFTSDLSIQK([γGlu-Palmitoyl])EKRAAQLFIEWLKNGGPSSGAPPPS-NH2 (N-terminus assumed; SMILES CCCCCCCCCCCCCCCC(=O)N[C@@H](CCC(=O)NCCCC[C@H](NC(=O)[C@H](CCC(N)=O)NC(=O)[C@@H](NC(=O)[C@H](CO)NC(=O)[C@H](CC(C)C)NC(=O)[C@H](CC(=O)O)NC(=O)[C@H](CO)NC(=O)[C@@H](NC(=O)[C@H](Cc1ccccc1)NC(=O)[C@@H](NC(=O)CNC(=O)[C@H](CCC(N)=O)NC(=O)C(C)(C)NC(=O)[C@@H](N)Cc1ccc(O)cc1)[C@@H](C)O)[C@@H](C)O)[C@@H](C)CC)C(=O)N[C@@H](CCC(=O)O)C(=O)N[C@@H](CCCCN)C(=O)N[C@@H](CCCNC(=N)N)C(=O)N[C@@H](C)C(=O)N[C@@H](C)C(=O)N[C@@H](CCC(N)=O)C(=O)N[C@@H](CC(C)C)C(=O)N[C@@H](Cc1ccccc1)C(=O)N[C@H](C(=O)N[C@@H](CCC(=O)O)C(=O)N[C@@H](Cc1c[nH]c2ccccc12)C(=O)N[C@@H](CC(C)C)C(=O)N[C@@H](CCCCN)C(=O)N[C@@H](CC(N)=O)C(=O)NCC(=O)NCC(=O)N1CCC[C@H]1C(=O)N[C@@H](CO)C(=O)N[C@@H](CO)C(=O)NCC(=O)N[C@@H](C)C(=O)N1CCC[C@H]1C(=O)N1CCC[C@H]1C(=O)N1CCC[C@H]1C(=O)N[C@@H](CO)C(N)=O)[C@@H](C)CC)C(=O)O) [exendin-4 peptide analogue SEQ ID NO: 45] | 0.0797 | 0.0114 | 0.0234
5 | Y[Aib]QGTFTSDLSIQK([γGlu-Palmitoyl])DSRAAQDFIEWLKKGGPSSGAPPPS-NH2 (N-terminus assumed; SMILES CCCCCCCCCCCCCCCC(=O)N[C@@H](CCC(=O)NCCCC[C@H](NC(=O)[C@H](CCC(N)=O)NC(=O)[C@@H](NC(=O)[C@H](CO)NC(=O)[C@H](CC(C)C)NC(=O)[C@H](CC(=O)O)NC(=O)[C@H](CO)NC(=O)[C@@H](NC(=O)[C@H](Cc1ccccc1)NC(=O)[C@@H](NC(=O)CNC(=O)[C@H](CCC(N)=O)NC(=O)C(C)(C)NC(=O)[C@@H](N)Cc1ccc(O)cc1)[C@@H](C)O)[C@@H](C)O)[C@@H](C)CC)C(=O)N[C@@H](CC(=O)O)C(=O)N[C@@H](CO)C(=O)N[C@@H](CCCNC(=N)N)C(=O)N[C@@H](C)C(=O)N[C@@H](C)C(=O)N[C@@H](CCC(N)=O)C(=O)N[C@@H](CC(=O)O)C(=O)N[C@@H](Cc1ccccc1)C(=O)N[C@H](C(=O)N[C@@H](CCC(=O)O)C(=O)N[C@@H](Cc1c[nH]c2ccccc12)C(=O)N[C@@H](CC(C)C)C(=O)N[C@@H](CCCCN)C(=O)N[C@@H](CCCCN)C(=O)NCC(=O)NCC(=O)N1CCC[C@H]1C(=O)N[C@@H](CO)C(=O)N[C@@H](CO)C(=O)NCC(=O)N[C@@H](C)C(=O)N1CCC[C@H]1C(=O)N1CCC[C@H]1C(=O)N1CCC[C@H]1C(=O)N[C@@H](CO)C(N)=O)[C@@H](C)CC)C(=O)O) [exendin-4 peptide analogue SEQ ID NO: 43] | 0.114 | 0.007 | 0.0482
6 | Y[Aib]QGTFTSDLSIQK([γGlu-Palmitoyl])DKRAAQDFIEWLKKGGPSSGAPPPS-NH2 (N-terminus assumed; SMILES CCCCCCCCCCCCCCCC(=O)N[C@@H](CCC(=O)NCCCC[C@H](NC(=O)[C@H](CCC(N)=O)NC(=O)[C@@H](NC(=O)[C@H](CO)NC(=O)[C@H](CC(C)C)NC(=O)[C@H](CC(=O)O)NC(=O)[C@H](CO)NC(=O)[C@@H](NC(=O)[C@H](Cc1ccccc1)NC(=O)[C@@H](NC(=O)CNC(=O)[C@H](CCC(N)=O)NC(=O)C(C)(C)NC(=O)[C@@H](N)Cc1ccc(O)cc1)[C@@H](C)O)[C@@H](C)O)[C@@H](C)CC)C(=O)N[C@@H](CC(=O)O)C(=O)N[C@@H](CCCCN)C(=O)N[C@@H](CCCNC(=N)N)C(=O)N[C@@H](C)C(=O)N[C@@H](C)C(=O)N[C@@H](CCC(N)=O)C(=O)N[C@@H](CC(=O)O)C(=O)N[C@@H](Cc1ccccc1)C(=O)N[C@H](C(=O)N[C@@H](CCC(=O)O)C(=O)N[C@@H](Cc1c[nH]c2ccccc12)C(=O)N[C@@H](CC(C)C)C(=O)N[C@@H](CCCCN)C(=O)N[C@@H](CCCCN)C(=O)NCC(=O)NCC(=O)N1CCC[C@H]1C(=O)N[C@@H](CO)C(=O)N[C@@H](CO)C(=O)NCC(=O)N[C@@H](C)C(=O)N1CCC[C@H]1C(=O)N1CCC[C@H]1C(=O)N1CCC[C@H]1C(=O)N[C@@H](CO)C(N)=O)[C@@H](C)CC)C(=O)O) [exendin-4 peptide analogue SEQ ID NO: 44] | 0.0552 | 0.0097 | 0.0255
